Earlier results on one substance are cited in paper PMC6018615.

For orientation: Kd means a measure of binding affinity in units of concentration.

The data set deals with TNPO1 (Homo sapiens) (UniProt Q92973).
UniProt Q92973, sequence (Q92973 whole entry): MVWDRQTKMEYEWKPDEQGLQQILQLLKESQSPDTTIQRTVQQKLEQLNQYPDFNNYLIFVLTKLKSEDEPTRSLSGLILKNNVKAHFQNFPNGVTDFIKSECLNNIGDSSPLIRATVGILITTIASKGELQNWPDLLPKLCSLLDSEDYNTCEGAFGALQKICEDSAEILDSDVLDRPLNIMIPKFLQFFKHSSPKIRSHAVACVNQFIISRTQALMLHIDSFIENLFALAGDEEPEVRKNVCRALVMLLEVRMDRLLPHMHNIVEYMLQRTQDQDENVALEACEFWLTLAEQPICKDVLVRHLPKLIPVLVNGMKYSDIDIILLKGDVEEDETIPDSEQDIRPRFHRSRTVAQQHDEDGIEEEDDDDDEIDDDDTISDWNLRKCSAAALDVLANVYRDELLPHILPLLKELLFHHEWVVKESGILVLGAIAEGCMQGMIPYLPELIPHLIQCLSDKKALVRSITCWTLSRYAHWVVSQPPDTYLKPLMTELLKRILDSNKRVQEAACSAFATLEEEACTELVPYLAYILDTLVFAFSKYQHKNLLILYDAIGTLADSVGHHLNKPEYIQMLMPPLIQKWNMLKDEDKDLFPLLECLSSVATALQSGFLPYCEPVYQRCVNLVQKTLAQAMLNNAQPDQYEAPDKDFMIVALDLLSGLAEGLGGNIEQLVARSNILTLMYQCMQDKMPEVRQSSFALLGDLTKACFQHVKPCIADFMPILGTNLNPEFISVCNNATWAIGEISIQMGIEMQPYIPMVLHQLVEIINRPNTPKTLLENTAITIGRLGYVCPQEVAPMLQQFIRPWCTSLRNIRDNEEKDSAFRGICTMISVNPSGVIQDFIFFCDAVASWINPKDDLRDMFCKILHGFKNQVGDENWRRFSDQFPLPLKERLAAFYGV

In the case of FUS (from UniProt P35637), the Kd is 9.5 nM.
